# Results from article PMC3170469.
# Legend:
# [1] = molecular target: hydrogen peroxide treated recombinant human interferon beta-1a (human) (UniProt P01574); assay: SEC
# [2] = molecular target: metal-catalyzed oxidized recombinant human interferon beta-1a (human) (UniProt P01574); assay: SEC
oligomer fraction (%) [1] [%],oligomer fraction (%) [2] [%],Substance
7,–,hydrogen peroxide treated recombinant human interferon beta-1a (from UniProt P01574 22-187) (natural protein)
–,68,metal-catalyzed oxidized recombinant human interferon beta-1a (from UniProt P01574 22-187) (natural protein)
